The record followed here is patent US20080267971A1 (published 2008).

Holding throughout (experiment): ELISA
(In general: In an ELISA, binding on a coated surface is turned into a signal by an enzyme label.)

The target of one assay is T1, human Ang-2 V345M (human, UniProt O15123 19-496).
T1 sequence: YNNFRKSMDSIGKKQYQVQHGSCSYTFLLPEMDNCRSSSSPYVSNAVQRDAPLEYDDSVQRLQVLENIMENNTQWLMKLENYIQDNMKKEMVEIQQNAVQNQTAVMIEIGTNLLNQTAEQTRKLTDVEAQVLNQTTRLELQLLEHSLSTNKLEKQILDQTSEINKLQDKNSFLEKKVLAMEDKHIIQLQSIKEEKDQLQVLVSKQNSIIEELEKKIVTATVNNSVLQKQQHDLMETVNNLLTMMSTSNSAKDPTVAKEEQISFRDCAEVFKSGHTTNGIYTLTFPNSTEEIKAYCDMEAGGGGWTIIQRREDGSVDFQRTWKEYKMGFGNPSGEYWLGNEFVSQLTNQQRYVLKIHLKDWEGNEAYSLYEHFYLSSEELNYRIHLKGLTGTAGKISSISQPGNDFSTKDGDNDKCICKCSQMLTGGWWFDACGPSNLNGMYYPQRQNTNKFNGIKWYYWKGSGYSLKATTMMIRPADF

The target in assay [1] is T2, Mouse/Human Ang-2 StuI chimeric molecule (mouse; human, UniProt O35608 19-496).
T2 construct: also called M/H Stul 310-496
T2 chain: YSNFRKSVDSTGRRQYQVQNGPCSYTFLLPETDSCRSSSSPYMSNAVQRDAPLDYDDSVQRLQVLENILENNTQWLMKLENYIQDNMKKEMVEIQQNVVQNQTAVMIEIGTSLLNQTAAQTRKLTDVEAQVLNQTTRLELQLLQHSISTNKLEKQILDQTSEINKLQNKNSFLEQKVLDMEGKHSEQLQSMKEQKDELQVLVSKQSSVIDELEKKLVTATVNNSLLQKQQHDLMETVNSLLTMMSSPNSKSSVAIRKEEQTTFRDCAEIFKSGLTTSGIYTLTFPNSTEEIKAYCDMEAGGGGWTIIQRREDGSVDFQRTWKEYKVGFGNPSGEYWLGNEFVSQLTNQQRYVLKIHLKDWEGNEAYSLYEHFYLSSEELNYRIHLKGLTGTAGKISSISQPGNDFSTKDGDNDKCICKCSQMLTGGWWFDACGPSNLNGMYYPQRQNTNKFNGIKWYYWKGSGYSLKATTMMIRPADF

For assay [2], the target named is T3, Human Ang-1/2 BsmI chimeric molecule (human).
T3 chain: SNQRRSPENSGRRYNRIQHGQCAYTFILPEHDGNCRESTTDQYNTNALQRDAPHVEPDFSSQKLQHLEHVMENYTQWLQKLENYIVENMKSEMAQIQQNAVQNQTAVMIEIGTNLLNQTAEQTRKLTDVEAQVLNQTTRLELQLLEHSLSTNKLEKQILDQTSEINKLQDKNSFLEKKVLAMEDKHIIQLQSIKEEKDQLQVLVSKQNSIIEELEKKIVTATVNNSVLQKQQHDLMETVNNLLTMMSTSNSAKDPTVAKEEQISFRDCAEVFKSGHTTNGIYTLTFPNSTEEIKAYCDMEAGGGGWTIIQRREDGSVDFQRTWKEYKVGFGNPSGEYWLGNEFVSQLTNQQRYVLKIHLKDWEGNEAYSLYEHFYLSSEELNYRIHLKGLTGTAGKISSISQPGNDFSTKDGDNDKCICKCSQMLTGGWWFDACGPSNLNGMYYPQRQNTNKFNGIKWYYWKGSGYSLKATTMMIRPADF

Assay [3] concerns the target T4, Mouse/Human chimeric Ang-2 with the human StuI-TfiI fragment (mouse/human chimera, UniProt O35608 19-496).
T4 construct: also called Stu-Tfil 310-400
T4 chain: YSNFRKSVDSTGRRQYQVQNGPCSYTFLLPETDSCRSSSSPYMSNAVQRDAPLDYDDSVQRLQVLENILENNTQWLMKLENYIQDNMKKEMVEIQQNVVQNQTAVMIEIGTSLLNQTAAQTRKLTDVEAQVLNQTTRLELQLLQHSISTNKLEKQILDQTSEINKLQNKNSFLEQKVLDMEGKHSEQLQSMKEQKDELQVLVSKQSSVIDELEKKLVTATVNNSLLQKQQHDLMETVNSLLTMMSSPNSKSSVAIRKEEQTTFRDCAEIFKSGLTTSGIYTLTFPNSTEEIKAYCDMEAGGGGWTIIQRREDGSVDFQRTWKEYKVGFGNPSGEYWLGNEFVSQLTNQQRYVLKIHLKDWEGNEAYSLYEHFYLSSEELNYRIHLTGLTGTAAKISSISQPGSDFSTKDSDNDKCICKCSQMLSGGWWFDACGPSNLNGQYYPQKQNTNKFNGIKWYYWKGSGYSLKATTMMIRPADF

The target in a further assay is T5, human Ang-2443 (human, UniProt O15123 19-496).
T5 construct: Splice variant missing amino acids 96-148; supernatant of transfected 293F cells
T5 sequence: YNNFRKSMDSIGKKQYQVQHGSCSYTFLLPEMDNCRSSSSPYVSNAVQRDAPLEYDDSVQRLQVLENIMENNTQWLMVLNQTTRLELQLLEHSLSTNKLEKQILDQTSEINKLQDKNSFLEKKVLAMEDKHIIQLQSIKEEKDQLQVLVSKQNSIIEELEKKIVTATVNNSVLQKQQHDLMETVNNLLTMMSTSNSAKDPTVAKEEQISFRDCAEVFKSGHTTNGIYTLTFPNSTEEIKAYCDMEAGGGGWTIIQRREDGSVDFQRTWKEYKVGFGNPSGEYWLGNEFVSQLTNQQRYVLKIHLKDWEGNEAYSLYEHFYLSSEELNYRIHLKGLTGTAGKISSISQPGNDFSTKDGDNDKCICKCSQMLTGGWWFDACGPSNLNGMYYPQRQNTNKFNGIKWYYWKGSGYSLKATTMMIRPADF

B1: mAb 5.28.1 (antibody, V domains shown)
VH: EVQLVESGGIVVQPGGSLRLSCAASGFTFDDYTMHWVRQTPGKGLEWVSLISWDGGSTYYADSVKGRFTISRDNSKNSLYLQMNSLRTEDTALYYCAKDIDIAVAGTGFDHWGQGTLVTVSS
VL: EIVMTQSPATLSVSPGERATLSCRASQSVTSNLAWYQQKPGQAPRLLIYGALIRATGIPARFSGSGSGTEFTLTISSLQSEDFAVYYCQQYNNWPFTFGPGTKVDIKR
notes: Human hybridoma IgG (XenoMouse); also called x5.28
With B1, the “% of binding to human Ang-2” value (in the assay with human Ang-2 V345M; in assay [1]; in assay [2]; in assay [3]; in the assay with human Ang-2443) was 100% throughout.

B2: mAb 5.35.1 (antibody, V domains shown)
VH: EVQLVESGGGVVRPGGSLRLSCTTSGFTFDDYGMSWVRQAPGKGLEWVSGINWNGGSTVYADSVKGRFTISRDSAKNSLYLQMNSLRAEDTALYHCARNKQWLWYFDLWGRGTLVTVSS
VL: EIVMTQSPATLSVSPGERATLSCRASQSVSSNLAWYQQKPGQAPRLLIYGASTRATGIPARFSGSGSGTEFTLTISSLQSEDFAVYYCEQYNNWPLTFGGGTKVEIKR
notes: Human hybridoma IgG (XenoMouse); also called x5.35
As to B2, the “% of binding to human Ang-2” value (with human Ang-2 V345M; in assay [1]; in assay [2]; in assay [3]; in the assay with human Ang-2443) was 100% each time.

B3: mAb 5.56.1 (antibody, V domains shown)
VH: QVQLVESGGGVVQPGRSLRLSCAASGFTFSSYGMHWVRQAPGKGLEWVAVIWYDGSNKYYADSVKGRFTISRDNSKNTLYLQMNSLRAEDTAVYYCAREDNWNFYFDYWGQGTLVTVSS
VL: DIQMTQSPSSLSASVGDRVTITCRASQGISYYLAWYQQKPGKVPKLLIYAASTLQSGVPSRFSGSGSGTDFTLTISSLQPEDVATYYCQKYNSAPFTFGPGTKVDIKR
notes: Human hybridoma IgG (XenoMouse); also called x5.56
For the molecule B3, the “% of binding to human Ang-2” value (in the assay with human Ang-2 V345M; in assay [1]; in assay [2]; in assay [3]; with human Ang-2443) was 100% throughout.

B4: mAb 5.52.1 (antibody, V domains shown)
VH: QVQLVESGGGVVQPGRSLRLSCAASGFTFSSYGMHWVRQAPGKGLEWVAVRWYDESNKYYADSVKGRFTISRDNSKNTLYLQMNSLRAEDTAVYYCARDPFETGTTFDYWGQGTLVTVSS
VL: DIQMTQSPSSVSASVGDRVTITCRASQGISSWLAWYQQKPGKAPKLLIYAVSSLESGVPSRFSGSGSGTDFTLTISSLQPEDFATYYCQQALTFGGGTKVEIKR
notes: Human hybridoma IgG (XenoMouse); the line 5.52 has entries of its own (347, 349; light chain L2) that differ from the clone 5.52.1 (L5); also called x5.52
For B4, the “% of binding to human Ang-2” value (in the assay with human Ang-2 V345M; in assay [1]; in assay [2]; in assay [3]; with human Ang-2443) was 100% throughout.

B5: mAb 5.62.1 (antibody, V domains shown)
VH: EVQLVESGGGLVQPGGSLRLSCAASGFTFSSYWMSWVRQAPGKGLEWVANIKQDGSEKYYVDSVKGRFTISRDNAKNSLYLQMNSLRAEDTAVYYCARDPGIAVAGPFDYWGQGTLVTVSS
VL: EIVMTQSPATLSVSPGERATLSCRASQSVSSNLAWYQQKPGQAPRLLIYGAFTRATGIPARFSGSGSGTEFTLTISSLQSEDFAVYYCQQYNHWWTFGQGTKVGIKR
notes: Human hybridoma IgG (XenoMouse); also called x5.62
As to B5, the “% of binding to human Ang-2” value turned out to be 100% with human Ang-2 V345M; 100% in assay [1]; 100% in assay [2]; 30% in assay [3]; 100% in the assay with human Ang-2443.

B6: mAb 5.39.1 (antibody, V domains shown)
VH: QVQLVQSGAEVTKPGASVKVSCKASGYTFTAYHMYWVRQAPGQGLEWMGWINPNSGGTNYAQKFQGRVTMTRDTSISTAYMELSRLRSDDSPVYYCARDQGIAAAGPFDYWGQGTLVTVSS
VL: EIVMTQSPATLSVSPGDRATLSCRASQSVSSNFAWYQQKPGQAPRLLIYGSSTRATGIPARFSGSGSGTEFTLTISSLQSEDFAVYYCQQYHYWWTFGQGTKVEFKR
notes: Human hybridoma IgG (XenoMouse); also called x5.39
In the case of B6, the “% of binding to human Ang-2” value with human Ang-2 V345M came to 100%; in assay [1] it was 100%; in assay [2], 100%; in assay [3], 25%; in the assay with human Ang-2443, 100%.

B7: mAb 5.40.2 (antibody, V domains shown)
VH: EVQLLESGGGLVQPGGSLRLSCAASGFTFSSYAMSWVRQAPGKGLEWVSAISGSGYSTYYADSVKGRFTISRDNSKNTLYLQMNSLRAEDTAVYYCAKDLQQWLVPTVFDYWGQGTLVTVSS
VL: EIVMTQSPATLSVSPGERATLSCRASQSVSSNLVWYQQKPGQAPRLLIYDSSTRATGIPVRFSGSGSGTEFTLTISSLQSEDFAVYYCQQYNHWWTFGQGTKVEIKR
notes: Human hybridoma IgG (XenoMouse); also called x5.40
With B7, the “% of binding to human Ang-2” value with human Ang-2 V345M came to 100%; in assay [1], 100%; in assay [2], 100%; in assay [3], 65%; with human Ang-2443 it was 100%.

B8: mAb 5.108.1 (antibody, V domains shown)
VH: QVQLVESGGGVVQPGRSLRLSCAASGFTFSSYGMHWVRQAPGKGLEWVAVIWYDGSNKYYADSVKGRFTISRDNSKNTLYLQMNSLRAEDTAMYYCARELALWGQGTLVTVSS
VL: EIVMTQSPATLSVSPGERATLSCRASQSVSSYLAWYQQKPGQAPRLLIYGAFTRATGIPARFRGSGSGPEFTLTISSLQSEDFAVYYCQQYSHWWTFGQGTKVEIKR
notes: Human hybridoma IgG (XenoMouse); also called x5.108
In the case of B8, the “% of binding to human Ang-2” value in the assay with human Ang-2 V345M was 100%; in assay [1] it was 100%; in assay [2], 100%; in assay [3] it was 36%; with human Ang-2443, 100%.
